{"source": "patent EP1486509A2", "about": "“Radiolabeled annexin-galactose cluster conjugates” (NEORX CORPORATION, priority 1994, dated 1996)", "key": {"[1]": {"experiment": "Blood clearance in the swine model", "details": "in vivo", "text": "An animal model, as previously described in Example III, was employed to evaluate blood clearance of the molecules."}, "[2]": {"test_system": "atrial thrombi and injured left atrium", "design": "species or system Yorkshire swine", "details": "in vivo", "procedure": "Image acquisition was performed as described below. […] A final blood sample was taken for well counting.\nD. Sample Collection. […] Each vial was counted for 1 minute.\nWell counting ratios were obtained for a variety of tissue samples. For the injured tissues and thrombi, multiple specimens were usually taken from the same animal. In those cases, the maximum ratio for any one specimen is reported, as well as the average of all specimens taken. The maximum for each animal was averaged across all animals and is reported as the Maximum Anx-V Ratio."}}}
{"substance": "Tc-99m-annexin V: Annexin V radiolabeled with Tc-99m by a diamide dimercaptide N2S2 chelate (Example I)", "values": [{"measurement": "%ID/g a", "setting": "[1]", "result": "%ID/g a = 0.0389"}, {"measurement": "%ID/g b", "setting": "[1]", "result": "%ID/g b = 0.0300"}, {"measurement": "highest non-target localization", "setting": "[2]", "result": "kidney"}]}
